According to patent publication US20180117114A1, “PEPTIDES THAT MODULATE THE EFFECT OF THE CRMP: NEUROFIBROMIN COMPLEX ON SYNAPTIC TRANSMISSION” (Indiana University Research and Technology Coporation, priority 2015, published 2018):

Legend:
CaV2.2 [1] = biological target: T1, CaV2.2 (Homo sapiens, UniProt Q00975); experiment: CaV2.2 surface staining in transfected HEK293 cells expressing CaV2.2; type: cell-based; details: HEK293 cells expressing CaV2.2, transiently transfected with EGFP-fused plasmids
T1 construct: expressed in transfected cells; host or cells: HEK293 cells expressing CaV2.2
T1 sequence (Q00975 whole entry, the tested form may be a part): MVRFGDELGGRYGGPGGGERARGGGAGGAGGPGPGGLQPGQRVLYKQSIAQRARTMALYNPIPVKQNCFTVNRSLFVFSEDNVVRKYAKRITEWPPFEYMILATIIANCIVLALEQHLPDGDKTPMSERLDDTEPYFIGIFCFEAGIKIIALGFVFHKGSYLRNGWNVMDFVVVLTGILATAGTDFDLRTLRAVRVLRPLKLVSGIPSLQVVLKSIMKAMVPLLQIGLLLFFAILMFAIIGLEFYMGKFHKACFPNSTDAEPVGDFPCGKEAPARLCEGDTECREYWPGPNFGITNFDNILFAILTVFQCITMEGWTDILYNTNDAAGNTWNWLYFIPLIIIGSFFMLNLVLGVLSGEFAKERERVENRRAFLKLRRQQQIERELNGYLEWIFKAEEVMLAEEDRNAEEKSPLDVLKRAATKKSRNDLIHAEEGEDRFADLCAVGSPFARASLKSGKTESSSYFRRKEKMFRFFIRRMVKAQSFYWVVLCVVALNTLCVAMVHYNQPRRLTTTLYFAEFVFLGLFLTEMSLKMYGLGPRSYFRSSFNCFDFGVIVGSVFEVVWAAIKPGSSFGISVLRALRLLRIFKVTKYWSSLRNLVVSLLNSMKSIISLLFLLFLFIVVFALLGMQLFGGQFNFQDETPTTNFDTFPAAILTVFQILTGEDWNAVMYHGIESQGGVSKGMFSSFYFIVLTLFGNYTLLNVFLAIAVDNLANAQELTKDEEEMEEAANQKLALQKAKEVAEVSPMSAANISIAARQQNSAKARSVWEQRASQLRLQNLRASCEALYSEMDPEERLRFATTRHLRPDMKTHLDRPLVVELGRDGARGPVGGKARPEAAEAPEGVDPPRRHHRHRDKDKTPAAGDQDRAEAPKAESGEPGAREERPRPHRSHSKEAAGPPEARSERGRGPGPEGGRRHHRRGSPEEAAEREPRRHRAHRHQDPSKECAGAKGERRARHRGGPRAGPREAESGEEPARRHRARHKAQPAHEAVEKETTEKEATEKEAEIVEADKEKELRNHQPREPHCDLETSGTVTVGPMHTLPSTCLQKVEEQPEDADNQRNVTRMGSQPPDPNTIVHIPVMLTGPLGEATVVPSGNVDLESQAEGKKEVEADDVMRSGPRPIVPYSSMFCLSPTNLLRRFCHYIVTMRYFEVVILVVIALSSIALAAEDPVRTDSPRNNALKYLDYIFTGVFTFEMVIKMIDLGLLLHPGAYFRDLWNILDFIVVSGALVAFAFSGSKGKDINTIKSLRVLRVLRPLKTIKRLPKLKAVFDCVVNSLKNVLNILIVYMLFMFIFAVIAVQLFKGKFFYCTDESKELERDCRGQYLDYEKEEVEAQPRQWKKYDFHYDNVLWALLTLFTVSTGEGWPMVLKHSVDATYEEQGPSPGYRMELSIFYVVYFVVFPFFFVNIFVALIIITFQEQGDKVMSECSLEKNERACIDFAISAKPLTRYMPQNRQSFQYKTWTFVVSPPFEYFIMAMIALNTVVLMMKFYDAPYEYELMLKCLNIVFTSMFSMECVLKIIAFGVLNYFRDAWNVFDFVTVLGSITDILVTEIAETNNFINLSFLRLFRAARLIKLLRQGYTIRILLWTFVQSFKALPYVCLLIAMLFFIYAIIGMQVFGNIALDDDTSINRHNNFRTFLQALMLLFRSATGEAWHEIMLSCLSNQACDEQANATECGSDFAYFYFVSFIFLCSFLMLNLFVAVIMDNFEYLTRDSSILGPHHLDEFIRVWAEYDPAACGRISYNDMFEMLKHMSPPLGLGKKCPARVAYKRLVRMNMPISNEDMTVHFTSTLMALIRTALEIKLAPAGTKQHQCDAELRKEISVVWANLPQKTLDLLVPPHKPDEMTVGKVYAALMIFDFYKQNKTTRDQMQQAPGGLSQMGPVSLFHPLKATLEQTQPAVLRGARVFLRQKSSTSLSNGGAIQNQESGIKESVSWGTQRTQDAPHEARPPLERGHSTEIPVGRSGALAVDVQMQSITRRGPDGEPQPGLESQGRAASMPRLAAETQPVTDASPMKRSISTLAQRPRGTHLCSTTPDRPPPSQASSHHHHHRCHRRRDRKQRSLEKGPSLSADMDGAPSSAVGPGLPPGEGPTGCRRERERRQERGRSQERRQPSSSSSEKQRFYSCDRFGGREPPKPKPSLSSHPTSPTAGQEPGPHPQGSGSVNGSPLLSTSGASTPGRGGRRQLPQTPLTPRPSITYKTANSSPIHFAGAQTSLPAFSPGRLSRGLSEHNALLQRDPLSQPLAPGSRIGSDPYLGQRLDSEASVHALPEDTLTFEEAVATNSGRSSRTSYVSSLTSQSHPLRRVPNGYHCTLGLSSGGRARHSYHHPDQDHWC
Experimental: (§1) Recently, it was shown that CRMP-2 facilitates CaV2.2 membrane trafficking in hippocampal and sensory neurons (12, 13), the hypothesis that the CBD3 peptide would act in a dominant negative manner to inhibit this CRMP-2 mediated trafficking was tested. Plasmids containing full-length CRMP-2 or the CBD3 peptide fused to enhanced green fluorescent protein (EGFP) were transiently transfected into human embryonic kidney 293 (HEK293) cells expressing CaV2.2. […] Since CBD3 peptide expression was sufficient in preventing forward trafficking of CaV2.2, it is possible that this would result in loss of currents via these channels. To test this, neurons were transfected with full-length CRMP-2 or CBD3 peptide and measured CaV2.2 currents 2 days post-transfection using whole-cell voltage clamp electrophysiology. Expression of CBD3 reduced peak Ca^2+ current density by ˜64% compared to CRMP-2 neurons (FIGS. 2C and 2D).

CaV2.2 [2] = experiment: CaV2.2 currents in transfected neurons by whole-cell voltage clamp electrophysiology; type: cell-based; details: compared to CRMP-2 neurons; 2 days post-transfection
Experimental: as §1

CRMP-2 = biological target: T2, CRMP-2 (Mus musculus, UniProt O08553); experiment: SPOTS blot of neurofibromin C-terminus peptides overlaid with mouse brain lysate, probed with CRMP-2 antibodies; type: binding; details: 15-mers, three CRMP-2 antibodies, FIG. 4
T2 construct: overlaid with wild-type mouse brain lysate in NF1 solubilization buffer; from tissue; host or cells: wild-type mouse brain lysate
Experimental: FIG. 4 presents plot of mean binding of CRMP-2 to neurofibromin versus peptide blot position. Neurofibromin peptides (15-mers) were spotted onto a SPOTS blot membrane from amino acids 2260-2818 of […], a region where neurofibromin has been reported to bind CRMP-2. The blots were blocked, then overlaid with wild-type mouse brain lysate in NF1 solubilization buffer, washed briefly, then incubated with poly CRMP-2 (Sigma) or mono CRMP-2+poly CRMP-2 phospho Ser522 and Ser555 antibodies. The blots were scanned (Licor) and the spot intensity normalized to the maximum intensity in each series. The normalized data was then averaged and the mean+/−SEM is shown in the graph above (n=3).
Referring now to FIG. 4, peptides encompassing the C-terminus of neurofibromin were spotted with CRMP-2 and the resulting blot was probed with three different CRMP-2 antibodies. […] These peptides are: SEQ ID NO: 1, RVSHGQIKQIIRILS; SEQ ID NO: 2, KGYRHPSPAIVARTV, and SEQ ID NO: 3, YLQSFGFNGLWRFAG. In order to facilitate their entry into cells, each peptide may be fused to a portion of the cell-membrane transduction domain of the human immunodeficiency virus-type 1 (HIV-1) transactivator of transcription (TAT) protein (SEQ ID NO: 4 and/or SEQ ID NO: 6).

| Sequence | cells exhibiting CaV2.2 surface staining (CaV2.2 [1]) [%] | reduction of peak Ca^2+ current density (CaV2.2 [2]) [%] | CRMP-2 binding to neurofibromin peptides (normalized spot intensity) (CRMP-2) |
| --- | --- | --- | --- |
| DFVYKRIKARSRLAE [CBD3 peptide, a peptide derived from a portion of the CBD3 region; expressed fused to EGFP in b74] | ~10 | ~64 |  |
| RVSHGQIKQIIRILS [SEQ ID NO: 1, a peptide encompassing a portion of the C-terminus of neurofibromin] |  |  | peaks |
| KGYRHPSPAIVARTV [SEQ ID NO: 2, a peptide encompassing a portion of the C-terminus of neurofibromin] |  |  | peaks |
| YLQSFGFNGLWRFAG [SEQ ID NO: 3, a peptide encompassing a portion of the C-terminus of neurofibromin] |  |  | peaks |
